This test addresses platelet glycoprotein (GP) IIb/IIIa on platelets of mouse platelet rich plasma (mouse) (UniProt Q9QUM0). Put plainly: cell-based or functional assay.

Results on one substance are retold here after patent US20130316951A1.

Chain of platelet glycoprotein (GP) IIb/IIIa on platelets of mouse platelet rich plasma (mouse) (Q9QUM0 32-1033, chain 1 of 2): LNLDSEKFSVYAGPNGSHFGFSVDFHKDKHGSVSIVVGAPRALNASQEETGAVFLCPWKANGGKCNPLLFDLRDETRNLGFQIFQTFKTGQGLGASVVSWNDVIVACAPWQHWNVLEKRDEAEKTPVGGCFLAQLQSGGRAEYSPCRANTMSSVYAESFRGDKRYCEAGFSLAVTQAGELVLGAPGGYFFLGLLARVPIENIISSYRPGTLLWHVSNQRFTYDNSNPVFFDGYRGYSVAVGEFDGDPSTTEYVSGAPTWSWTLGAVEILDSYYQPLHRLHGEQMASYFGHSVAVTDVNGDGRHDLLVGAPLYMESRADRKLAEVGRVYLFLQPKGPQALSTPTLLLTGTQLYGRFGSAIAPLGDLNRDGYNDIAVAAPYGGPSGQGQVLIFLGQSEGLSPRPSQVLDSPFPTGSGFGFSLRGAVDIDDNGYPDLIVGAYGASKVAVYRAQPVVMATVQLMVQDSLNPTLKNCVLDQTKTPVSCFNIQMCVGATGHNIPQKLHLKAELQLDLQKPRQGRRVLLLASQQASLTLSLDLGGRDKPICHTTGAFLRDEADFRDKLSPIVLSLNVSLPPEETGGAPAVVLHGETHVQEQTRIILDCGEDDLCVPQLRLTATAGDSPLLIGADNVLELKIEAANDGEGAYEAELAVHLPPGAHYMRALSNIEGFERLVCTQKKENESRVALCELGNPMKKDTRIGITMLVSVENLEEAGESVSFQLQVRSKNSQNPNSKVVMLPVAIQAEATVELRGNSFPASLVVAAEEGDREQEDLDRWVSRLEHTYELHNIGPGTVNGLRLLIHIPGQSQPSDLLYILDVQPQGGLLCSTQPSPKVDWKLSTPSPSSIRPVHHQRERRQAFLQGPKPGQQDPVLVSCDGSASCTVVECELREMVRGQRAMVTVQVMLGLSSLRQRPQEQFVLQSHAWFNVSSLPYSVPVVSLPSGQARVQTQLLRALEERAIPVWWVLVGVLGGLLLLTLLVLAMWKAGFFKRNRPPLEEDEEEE
Chain of platelet glycoprotein (GP) IIb/IIIa on platelets of mouse platelet rich plasma (mouse) (O54890 26-787, chain 2 of 2, further chain): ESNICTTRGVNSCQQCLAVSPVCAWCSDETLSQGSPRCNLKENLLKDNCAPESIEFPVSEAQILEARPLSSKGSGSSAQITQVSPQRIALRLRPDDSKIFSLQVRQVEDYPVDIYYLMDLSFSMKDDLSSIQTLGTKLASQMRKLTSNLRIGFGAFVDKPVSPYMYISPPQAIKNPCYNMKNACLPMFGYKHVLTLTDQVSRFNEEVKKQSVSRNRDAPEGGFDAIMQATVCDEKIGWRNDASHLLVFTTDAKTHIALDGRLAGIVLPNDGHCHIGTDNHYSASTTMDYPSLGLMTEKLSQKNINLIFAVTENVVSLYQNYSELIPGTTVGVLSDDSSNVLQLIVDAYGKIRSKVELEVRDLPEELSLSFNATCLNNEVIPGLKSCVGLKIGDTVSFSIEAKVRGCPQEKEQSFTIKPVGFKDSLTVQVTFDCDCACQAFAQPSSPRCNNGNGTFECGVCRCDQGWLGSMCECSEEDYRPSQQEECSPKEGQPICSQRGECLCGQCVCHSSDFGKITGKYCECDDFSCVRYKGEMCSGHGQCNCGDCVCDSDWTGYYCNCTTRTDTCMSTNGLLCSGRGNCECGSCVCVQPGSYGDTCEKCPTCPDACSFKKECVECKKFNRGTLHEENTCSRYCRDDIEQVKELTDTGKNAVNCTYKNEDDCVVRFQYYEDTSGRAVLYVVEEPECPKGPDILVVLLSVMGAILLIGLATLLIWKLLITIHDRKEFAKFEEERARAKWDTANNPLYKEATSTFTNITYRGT

In turn, “recombinant saxatilin (from UniProt Q9DGH6 1-73) (ligand)” had an IC50 of inhibition of ADP-induced platelet aggregation, mouse PRP, aggregometer of 176 nM and a treatment concentration giving a similar level of platelet aggregation inhibition of 0.7 µM.
